Positions count from the first letter of the chain named.
B1: NCS.1.1 (human IgG1) (antibody, V domains shown)
VH: QVQLQESGPRLVKPSETLSLTCSVSGESISSGGYYWTWIRQHPGKGLEWIGNIFDTGSTDYSPSLKTRLTISIDTSKNQFYLRLNSATAADTAVYYCARVGFSLETDRPYYLGLDVWGQGTTVTVSS
VL: DIVMTQSPLSLPVTPGEPASISCRSSQSLLHSNGYTYLDWYLQKPGQSPQLLISFTSNRASGVPDRFSGSGSGTYFTLKISRVEAEDVGVYYCMQAVQTPWTFGQGTKVEIK
B2: NCS.1.3 (human IgG1) (antibody, V domains shown)
VH: B1 VH with N85T
VL: B1 VL with S10T, S54Y, T56A, T99S
B3: NCS.1 (human IgG1) (antibody, V domains shown)
VH: B1 VH with Q5P, D60H, F102Y, L112F
VL: B1 VL with S54Y, F55L, T56A

Target: unmodified NA of A/Vietnam/1203/2004 (VN04, H5N1) (Influenza A virus A/Vietnam/1203/2004 …, UniProt Q6DPL2, strain)
Experiment: ELISA
Details: both partners purified

Row | Binder | binding result
1 | B1 | binds
2 | B2 | binds
3 | B3 | binds

Reference: publication PMC12316982 (Nature Communications, 2025)
